Usually stoichiometry N stands for a count of units in the complex or per binding partner. The term Km denotes the substrate concentration at which the rate is half of its maximum. As a reminder, the kcat is the maximal rate divided by the concentration of active sites.

In data set [1] the target is Pedobacter yulinensis sulfatase (PyuS), recombinant, without the putative N-terminal signal peptide, C-terminal His6-tag (Pedobacter yulinensis). The experiment in a line: SEC; HiLoad 16/600 Superdex 200 pg, 10 mM Tris, 150 mM sodium chloride, pH 8.0, 1.2 mL/min, 4 °C; molecular weights of the two peaks from SEC MW standards; monomer and dimer.
Substrate in the data set “purified protein”: Cc1cc(=O)oc2cc(OS(=O)(=O)O)ccc12
The experiment in a line: purified protein. It is filed as biochemical, Pedobacter yulinensis. Conditions: 25 mM Bis-Tris pH 6.5, 1.0 mM CaCl2, room temperature, SEC monomer. (In general: Size exclusion chromatography separates by hydrodynamic size, large species first.)

Take “Pedobacter yulinensis sulfatase (PyuS), recombinant, without the putative N-terminal signal peptide, C-terminal His6-tag (enzyme)”: in data set [1], the percent of soluble protein as homodimer is 10% and the stoichiometry N was determined as 2.

B1: PyuS (Pedobacter yulinensis) (protein)
chain: QGSRKPNIIFIMADDLGWGELGSYGNTFNETPNLDRLSAQGMRFTQAYAAAPVCSPTRASIMTGQYPARVGITDFLPEDEKTDRWLDPTKYVTLNEALSASGYHTGIVGKWHLDTDFKLNKGGPKAHGFNEVIGTESEYIADGDYFFPYSKIASFDKGTANEYLTDRQCAEANAFITRNREKPFFLYLSLYSVHTRLEAPVQLVEKYKQKFDQKYGTGKAEQFFGANNVRHESAQRDNPWLAAMLESIDTGVGGIMKTLRETGLAENTIIVFFSDNGGAGKAGNNAHLRAGKTWLYEGGIREPLIVSWPGKIKGNTVNDNPVTSLDFYPTFLAAAGGKPTGGRLDGHNLMPLLRGGRASGRPLFWHYPSETGKWVNRMSSAVREGNYKLLEFYNNPRLELYDLQNDPSESHNLATDRPAETARLKKLLEDWKKEVNAEAPHLARKEKKKP
notes: signal peptide (native residues 2-24) removed; C-terminal GSHHHHHH tag kept; expressed in E. coli with M. tuberculosis FGE (active-site Cys converted to formylglycine, FGly55); 459 residues, 51,320 Da; SEC monomer
Turning to B1, in “purified protein”, the Km was determined as 1890 µM and the kcat stood at 0.00983 s⁻¹.

The record behind these values is article PMC8746622, “Purification, Characterization, and Structural Studies of a Sulfatase from Pedobacter yulinensis” (Molecules, 2021).
